Experimental data: PMC11743104, “Potent human antibodies against SpA5 identified by high-throughput single-cell sequencing of phase I clinical volunteers’ B cells” (iScience, 2024)

Columns and labels:
[1] = molecular target: T1, mutant staphylococcal protein A (SpA5) (Staphylococcus aureus, recombinant …, point mutant); assay: BLI; Octet RED96, room temperature, PBS with 0.01% Tween 20; Abs-9 (8 ug/mL) loaded on Pro A biosensor; SpA5 in double dilutions 53 uM to 6.63 uM, 600 s association, 600 s dissociation; conditions: both partners purified
T1 construct: staphylococcal protein A, mutant 'pentameric form' (SpA5), component of the recombinant five-component S. aureus vaccine; The residue numbers printed for SpA5 (E790 to N893) come from the docked model; also called antigen SpA5; pentameric form of S. aureus protein A; source: recombinant antigenic protein (vaccine component of rFSAV)

[2] = molecular target: T2, S. aureus protein A in MRSA252 bacterial fluid (Staphylococcus aureus MRSA252 (stand-in …, UniProt P02976, strain)); assay: affinity purification with mass spectrometry; supernatant of ultrasonically fragmented MRSA252 incubated overnight with Abs-9 (200 uL, 8 mg/mL), bound to Protein A beads 2 h, eluate to mass spectrometry; conditions: one partner purified
T2 construct: staphylococcal protein A as it is present in strain MRSA252; The lysate of MRSA252 can hold only the native protein A, not the recombinant mutant SpA5; also called SpA; source: endogenous, MRSA252 ultrasonically fragmented and centrifuged, supernatant

KLH-(N847-S857) = molecular target: T3, KLH-(N847-S857) (Staphylococcus aureus, protein A …); assay: ELISA; KLH-(N847-S857) coated at 2 ug/mL; Abs-9 from 2 ug/mL in PBST, diluted in half; 37 C 1 h; goat anti-human IgG Fc-HRP, OD450; SpA5 positive control, KLH negative control; conditions: both partners purified
T3 construct: stretch N847-S857 of SpA5; they were put together from the eleven consecutive residues in the docking list; also called synthetic peptide N847-S857; source: synthetic peptide, coupled to keyhole limpet hemocyanin (KLH)
T3 chain: NEEQRNGFIQS

B1: human antibody Abs-9 (antibody, V domains shown)
VH: QVQLQQWGAGLLKPSETLSLTCAVYGGSFSGYYWSWIRQPPGKGLEWIGEINHSGSTNYNPSLKSRVTISVDTSKNQFSLKLSSVTAADTAVYYCARRSYGVKPFDYWGQGTLVTVSS
VL: SSELTQDPAVSVALGQTVRITCQGDSLRTYYASWYQQKPGQAPALVIYGKNNRPSGIPDRFFGSSSGNTASLTITGAQAEDEADYYCNSRDSSGNHHPVFGGGTKLTVL
notes: germline VH3-48 gene; also called IgG-9; source: 293F cells, transfected (heavy and light chain plasmids, PEI), purified from supernatant on Protein A beads
[1]
  Kd: 1.96 nM
  koff: 5.63e-07 s⁻¹
[2]
  binding result: binds
KLH-(N847-S857)
  binding result: binds
